Results from patent US20240093255A1, “BIOSYNTHETIC PRODUCTION OF 2-FUCOSYLLACTOSE” (Conagen Inc., priority 2020, published 2024).

What was measured:
[1] = GDP-mannose-3,5-epimerase candidate screening (GDP-D-mannose to GDP-L-galactose); type: biochemical; settings: enzymatic screening of candidates
Protocol: The reaction conditions were: 2 mM GDP-D-mannose, 1 mM NAD^+, 50 mM Tris-HCl, pH 8.0 and with or without 0.33 mg/mL At GME. The reactions were incubated at room temperature for 16 hours, quenched by heating at 99° C. for 10 mins, and analyzed using HPLC.

[2] = expressed in E. coli
From the text: One of the major limitations for 2′-FL production is FutC activity. After screening various FutC candidates as described in Example 5, the inventors sought to identify mutant FutC candidates with even higher activity and improved solubility using bioinformatics. Based on ancestral sequence reconstruction (ASR) analysis, a series of ASR mutants were designed (Table 5) and screened for their solubility and activity.
(§1) The enzymes listed in Table 5 were expressed in E. coli, and the clarified lysate was normalized based on the OD600 standard curve and used to screen for activity. To the clarified lysate was added 50 mM Tris pH 7.5, 1 mM GDP-L-fucose, and 80 mM lactose, and the reactions were quenched by heating at 99° C. for 10 minutes, and analyzed using the 2′-FL HPLC method.

[3] = Activity comparison of purified FutC enzymes; type: biochemical; settings: 2 mM GDP-L-fucose, 40 mM lactose, 0.5 mg/mL FutC
Protocol: An assay was performed to compare the activity of the ASR11 and ASR12 enzymes to the activity of the parent construct, FutC #5 (SEQ ID NO: 29) and Helicobacter pylori FutC (HpFutC, SEQ ID NO: 61), an enzyme commonly used for 2′-FL production. Specifically, the assay conditions were: 2 mM GDP-L-fucose, 40 mM lactose, 50 mM Tris pH 7.5, and 0.5 mg/mL FutC.

[4] = ASR library activity screen in clarified E. coli lysate; type: biochemical; settings: 1 mM GDP-L-fucose, 80 mM lactose
Protocol: as §1

[5] = In vitro enzyme cascade converting L-galactose to 2′-FL; type: biochemical; settings: 10 mM L-galactose, 0.2 g/L FutC, quenched at 3 hours and 22 hours
Protocol: The reaction conditions were: 50 mM Tris pH 7.5, 10 mM L-galactose, 2 mM ATP, 2 mM GTP, 25 mM acetyl phosphate, 5 mM magnesium chloride, 5 mM potassium chloride, 0.15 mM NADP^+, 0.5 mM NADPH, 40 mM lactose, 0.23 g/L […] (FKP, SEQ ID NO: 1), 0.06 g/L an acetate kinase for the ATP recycling system (Gs Ack, SEQ ID NO: 65), 0.3 g/L At GMD (SEQ ID NO: 79), 0.75 g/L WcaG (SEQ ID NO: 7) and 0.2 g/L ASR 12 (SEQ ID NO: 109). The reactions were quenched by heating at 99° C. […] and analyzed using the 2′-FL LC-MS method.

[6] = FKP activity towards L-galactose (GDP-L-galactose production); type: biochemical
Protocol: FKP naturally catalyzes the conversion of L-fucose into GDP-L-fucose. It has been reported that FKP also could generate GDP-L-galactose from L-galactose (Ohashi et al. 2017). FKP was cloned into pET21, expressed and purified as described in Example 1. The activity of FKP towards L-galactose was assayed under the following conditions: 2 mM L-galactose, 2 mM ATP, 2 mM GTP, 4 mM MgCl2, 50 mM Tris-HCl, pH 7.5 and with or without 0.25 g/L FKP. The samples were incubated at room temperature overnight, and quenched by heating at 99° C. for 10 minutes, and analyzed using LC-MS.
Further work was conducted to optimize the FKP reaction with L-galactose as the substrate, by varying reaction temperature, substrate concentrations, and adding an ATP/GTP regeneration system. The reaction conditions were: 50 mM Tris-HCl pH 7.5, 5 mM MgCl2, 5 mM L-galactose, 2 mM ATP, 2 mM GTP, 10 mM PEP, 1 U pyruvate kinase, and with or without 0.8 mg/mL FKP. The reaction was incubated at 37° C. for 44 hours. The reaction was quenched by heating at 99° C. for 10 minutes. The samples were analyzed using HPLC (FIG. 5).

[7] = Dehydratase screening for GDP-L-fucose synthesis from GDP-L-galactose; type: biochemical
Protocol: Four enzymes were screened: At Gmd (SEQ ID NO: 5), Hs Gmd (SEQ ID NO: 9), Ec Gmd (SEQ ID NO: 11) and Yp DmhA (SEQ ID NO: 13), while Ec WcaG (SEQ ID NO: 7) is known to be a reductase. […] The reactions were incubated for 16 hours at 37° C., and then quenched by heating at 99° C. for 10 minutes. Samples were analyzed by both HPLC and LC-MS methods.

[8] = GDP-L-fucose inhibition assay of GMD enzymes (GDP-4-keto-6-deoxymannose detection); type: biochemical; settings: 350 μM GDP-L-fucose; 1 mM GDP-mannose, 0.5 mg/mL GMD
Protocol: To test for inhibition, the mutants were expressed and purified as described in Example 7, and assayed at a range of GDP-L-fucose concentrations. The assay conditions were as follows: 50 mM Tris pH 7.5, 1 mM GDP-mannose, 0.5 mM NADP^+, 0.5 mg/mL dehydratase (GMD) enzyme, and 0 μM, 70 μM or 350 μM GDP-L-fucose. The reactions were quenched at 99° C. for 10 minutes, and the enzymes' respective activities were analyzed using the nucleotide sugar LC-MS method by GDP-4-keto-6-deoxymannose detection.

## At GME: GDP-mannose-3,5-epimerase from Arabidopsis thaliana, SEQ ID NO: 3
[1]
  GDP-mannose-3,5-epimerase activity: higher activity than Os GME

B1: ASR 12: FutC mutant from ancestral sequence reconstruction, SEQ ID NO: 109 (protein)
chain: MIIIRMSGGLGNQMFQYALYRKLKSMGKEVKIDDITGYEDDNQRSIMLDVFGIDYDKATKEEITKLTDSSMDFLSRIRRKLFGRKSKEYQEEDFNFDPQVLEMDDAYLEGYFQSEKYFQDVREQLRKEFTFRKNSVPELSEQTKELRKQIENSNSVSIHIRRGDYLENSHAEIYGGICTDDYYKKAIEYMKEKFPDAKFYIFSNDIEWAKQHFKGENFVIVDASEENTGYADMYLMSKCKHHIIANSSFSWWGAWLNDNPEKIVIAPSKWLNNKECKDIYTDRMIKIDAKGEVRSEDYGVRTNSTVK
modifications: ASR12
[2]
  solubility compared to the rest of the ASR library: improved
[3]
  FutC activity compared to Hp FutC and parent FutC 5: outperformed Hp FutC as well as the parent construct
[4]
  activity compared to the rest of the ASR library: improved
[5]
  2′-FL production compared to FutC #5 and Hp FutC: significantly higher

B2: FKP: fucokinase/guanylyltransferase from Bacteroides fragilis, SEQ ID NO: 1 (protein, listed as Bacteroides fragilis)
chain: MQKLLSLPPNLVQSFHELERVNRTDWFCTSDPVGKKLGSGGGTSWLLEECYNEYSDGATFGEWLEKEKRILLHAGGQSRRLPGYAPSGKILTPVPVFRWERGQHLGQNLLSLQLPLYEKIMSLAPDKLHTLIASGDVYIRSEKPLQSIPEADVVCYGLWVDPSLATHHGVFASDRKHPEQLDFMLQKPSLAELESLSKTHLFLMDIGIWLLSDRAVEILMKRSHKESSEELKYYDLYSDFGLALGTHPRIEDEEVNTLSVAILPLPGGEFYHYGTSKELISSTLSVQNKVYDQRRIMHRKVKPNPAMFVQNAVVRIPLCAENADLWIENSHIGPKWKIASRHIITGVPENDWSLAVPAGVCVDVVPMGDKGFVARPYGLDDVFKGDLRDSKTTLTGIPFGEWMSKRGLSYTDLKGRTDDLQAASVFPMVNSVEELGLVLRWMLSEPELEEGKNIWLRSERFSADEISAGANLKRLYAQREEFRKGNWQALAVNHEKSVFYQLDLADAAEDFVRLGLDMPELLPEDALQMSRIHNRMLRARILKLDGKDYRPEEQAAFDLLRDGLLDGISNRKSTPKLDVYSDQIVWGRSPVRIDMAGGWTDTPPYSLYSGGNVVNLAIELNGQPPLQVYVKPCKDFHIVLRSIDMGAMEIVSTFDELQDYKKIGSPFSIPKAALSLAGFAPAFSAVSYASLEEQLKDFGAGIEVTLLAAIPAGSGLGTSSILASTVLGAINDFCGLAWDKNEICQRTLVLEQLLTTGGGWQDQYGGVLQGVKLLQTEAGFAQSPLVRWLPDHLFTHPEYKDCHLLYYTGITRTAKGILAEIVSSMFLNSSLHLNLLSEMKAHALDMNEAIQRGSFVEFGRLVGKTWEQNKALDSGTNPPAVEAIIDLIKDYTLGYKLPGAGGGGYLYMVAKDPQAAVRIRKILTENAPNPRARFVEMTLSDKGFQVSRS
[6]; 2 mM L-galactose, 0.25 g/L FKP, room temperature overnight, LC-MS
  conversion of L-galactose to GDP-L-galactose: catalyzes the conversion of L-galactose to GDP-L-galactose
[6]; 5 mM L-galactose, 0.8 mg/mL FKP, PEP/pyruvate kinase regeneration, 37° C., 44 hours
  final titer of GDP-L-galactose: 2.5 g/L

B3: At WT: GDP-mannose-4,6-dehydratase from Arabidopsis thaliana, wild type, SEQ ID NO: 5 (protein, listed as Arabidopsis thaliana)
chain: MASENNGSRSDSESITAPKADSTVVEPRKIALITGITGQDGSYLTEFLLGKGYEVHGLIRRSSNFNTQRINHIYIDPHNVNKALMKLHYADLTDASSLRRWIDVIKPDEVYNLAAQSHVAVSFEIPDYTADVVATGALRLLEAVRSHTIDSGRTVKYYQAGSSEMFGSTPPPQSETTPFHPRSPYAASKCAAHWYTVNYREAYGLFACNGILFNHESPRRGENFVTRKITRALGRIKVGLQTKLFLGNLQASRDWGFAGDYVEAMWLMLQQEKPDDYVVATEEGHTVEEFLDVSFGYLGLNWKDYVEIDQRYFRPAEVDNLQGDASKAKEVLGWKPQVGFEKLVKMMVDEDLELAKREKVLVDAGYMDAKQQP
[7]; 5 mM GDP-L-Gal, 2.4 g/L At Gmd, 3.2 g/L Ec WcaG, 16 hours, 37° C.
  dehydratase activity towards GDP-L-galactose: has dehydratase activity towards GDP-L-galactose
[7]; among four potential dehydratases screened
  initial dehydratase activity: highest initial activity
[8]
  decrease in activity: 95%
